Test results: publication PMC5290946
pKd: −log10 of the molar value.

Target: His-MxiC(C184A/C233S/A247C/S290C), labelled with MTSL (Shigella flexneri) (UniProt Q04640)
Assay: continuous wave EPR; X-band, room temperature; MTSL-labelled His-MxiC(Cys) at ~75 μM with a 10-fold (~750 μM) or n-fold excess of the unlabelled partner, in 20 mM Tris-HCl pH 7.5, 100 mM NaCl; binding read from the change of the spin labels' spectrum; KD estimated from the molar ratio that gives half of the maximal change

In the case of “His6-IpaD(15-332) C322S (from UniProt P18013 15-332) (domain or fragment)”, the pKd was 3.14.
